Data on three molecules can be found in US20250066477A1 (INHIBRX BIOSCIENCES, published 2025).

For one experiment, the target named is T1, CD20 on Raji cells (UniProt P11836 1-297, limits assumed).
T1 construct: whole, on cells
T1 sequence (looked up): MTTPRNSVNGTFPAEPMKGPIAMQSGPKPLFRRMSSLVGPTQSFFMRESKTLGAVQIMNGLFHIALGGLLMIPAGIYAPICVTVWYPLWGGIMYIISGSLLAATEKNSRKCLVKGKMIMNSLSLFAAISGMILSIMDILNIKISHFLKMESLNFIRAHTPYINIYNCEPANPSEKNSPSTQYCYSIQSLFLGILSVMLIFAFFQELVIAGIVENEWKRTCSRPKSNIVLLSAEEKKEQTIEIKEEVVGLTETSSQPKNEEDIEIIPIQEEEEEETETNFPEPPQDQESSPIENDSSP
Description: flow cytometry on CD20-expressing Raji cells, anti-human Fcγ A647. The method, then: (§1) The binding activity of a bispecific γδ TCR molecule that binds γδTCR and the representative target antigen CD20 (γδTCR×CD20) comprising anti-γδ VHH domain 1D7v9, an anti-CD20 VHH domain and a heterodimeric knob-in-hole Fc region (cx11498) was assessed by flow cytometry on Raji target cells expressing CD20 and Vγ9Vδ2 T cells. PBMCs and Raji cells were thawed and resuspended to 1.0×10\hat{ }6 cells/ml in FACS buffer. 100,000 PBMCs or Raji cells were seeded in a 96-well plate. Test articles were added at a final starting concentration of 50 nM and titrated across the plate 1:4. Cells were incubated with the antibody for 30 minutes at 4 C, spun down, and washed four times with FACS buffer. Cells were labeled with anti-human Fcγ-A647 (Jackson ImmunoResearch) and PBMCs were also labeled with anti-human δ TCR-FITC (Biolegend) in 50 uL of FACS for 30 minutes at 4 C. The plate was washed twice with FACS buffer, resuspended in FACS buffer and read on the IQue flow cytometer. The mean fluorescent intensity for anti-human Fcγ-A647 was calculated using onboard software and graphed using Graphpad Prism. The γδ TCR×antigen molecule bound to both antigen (CD20) expressing Raji cells (FIG. 7A) and V 9Vδ2 T cells (FIG. 7B) in a titration dependent manner.
In general terms: Flow cytometry measures light scatter and fluorescence of single cells or particles in a stream.

Experiment [1] addresses T2, human γδ TCR (Vγ9Vδ2) on human γδ T cells (human).
T2 construct: whole, on cells; also called Vδ2+ γδ T cells; Vγ9Vδ2 T cells
The experiment in a line: flow cytometry on human PBMC gated on γδ TCR+ (Vγ9Vδ2) T cells, anti-human Fcγ A647. The method, then:
as §1

The target of experiment [2] is T3, CD33 on MOLM-13 and MV-411 cells (UniProt P20138 18-364, limits assumed).
T3 construct: whole, on cells
Description: flow cytometry on CD33-expressing MOLM-13 cells, anti-human A647. As for the experimental part:
(§2) A monospecific CD33 construct comprising an irrelevant second VHH domain instead of a γδTCR VHH domain (CD33×UT; cx12056) was also tested. Briefly, frozen PCMCs (previously treated with zoledronate to expand γδ T cells) were thawed and washed twice using 1×CTL thawing reagent in assay media. Cells were resuspended to 1×10\hat{ }6 cells/mL in FACs buffer and plated on a 96 well plate (100,000 cells/well). The test articles were added in 50 uL to each well at 4× the final starting concentration of 200 nM and titrated 1:4 across. 50 uL of FACS buffer was added for the final total volume of 200 uL. Cells were incubated with the test article at 4 C for 30 minutes, washed three times, and stained with Vd2-PE, CD3-BV785, and anti-human-A647 antibodies in FACS buffer for 30 minutes at 4 C. The cells were then washed 2× with FACS buffer, resuspended in 70 ul of FACS buffer and read on a Novocyte. All the molecules bound to CD33 expressing MOLM-13 (FIG. 8A) and MV4-11 (FIG. 8B) cells in a titration dependent manner. However, only the bispecific γδTCR×CD33 molecule bound to V 9Vδ2 T cells (FIG. 8C) in a titration dependent manner.

Experiment [3] addresses T2, human γδ TCR (Vγ9Vδ2) on human γδ T …. The experiment in a line: flow cytometry on zoledronate-expanded human PBMC gated on Vδ2+ cells, anti-human A647. As for the experimental part:
as §2

T2 sequence (main, as listed by the source): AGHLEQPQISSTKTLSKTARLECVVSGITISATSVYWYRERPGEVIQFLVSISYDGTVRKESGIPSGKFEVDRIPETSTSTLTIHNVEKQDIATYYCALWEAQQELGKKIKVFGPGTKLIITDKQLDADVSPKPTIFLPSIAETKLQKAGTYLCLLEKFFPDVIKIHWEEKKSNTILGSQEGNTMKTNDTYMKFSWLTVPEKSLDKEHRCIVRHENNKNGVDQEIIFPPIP
T3 sequence (P20138 18-364 limits assumed): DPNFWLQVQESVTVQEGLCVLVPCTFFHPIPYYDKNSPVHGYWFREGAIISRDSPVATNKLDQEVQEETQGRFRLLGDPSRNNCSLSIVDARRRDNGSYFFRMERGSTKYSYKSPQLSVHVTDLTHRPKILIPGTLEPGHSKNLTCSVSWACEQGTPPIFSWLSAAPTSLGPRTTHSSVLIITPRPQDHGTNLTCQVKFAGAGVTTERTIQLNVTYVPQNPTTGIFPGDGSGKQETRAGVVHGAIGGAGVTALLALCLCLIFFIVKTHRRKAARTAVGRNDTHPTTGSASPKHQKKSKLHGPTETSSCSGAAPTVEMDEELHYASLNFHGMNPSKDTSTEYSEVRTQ

B1: cx11498, γδTCR×CD20 bispecific polypeptide (1D7v9 VHH-Fc hole / anti-CD20 VHH-Fc knob) (bispecific antibody, V domains shown)
V domain 1: EVQLLESGGGEVQPGGSLRLSCVASRGKISQYRMGWYRQAPGKELEWVAHISNTGDAAEYVDSVKGRFTISRDSTKNAVYLQMSSLRAEDTAVYKCNSVEDILAWGQGTLVTVKP
V domain 2: QVQLQESGGGLVQPGGSLRLSCAASGRTFSMGWFRQAPRKEREFVAAITYSGGSPYYASSVRGRFTISRDNAKNTVYLQMNSLKPEDTAVYYCAARLTYGSTWSAENWGQGTQVTVKP
notes: also called γδ TCRxCD20; anti-CD20×Vγ9-1D7v9
Turning to B1, the figures for the “EC50 (read off the curve)” value (with CD20 on Raji cells; in experiment [1]) were approximately 5 nM and approximately 2 nM, respectively.

B2: cx12083, γδTCR×CD33 bispecific polypeptide (anti-CD33 VHH-Fc knob / 1D7v9 VHH-Fc hole) (bispecific antibody, V domains shown)
V domain 1: EVQLVESGGGEVQPGGSLRLSCAASRSSGIDVMGWYRQAPGKERELVAEISGVGDTNYAASLADRFTVSRDNAKNTVYLQMSSLRAEDTAVYYCNAHSFLDLVGAWGQGTLVTVKP
V domain 2: EVQLLESGGGEVQPGGSLRLSCVASRGKISQYRMGWYRQAPGKELEWVAHISNTGDAAEYVDSVKGRFTISRDSTKNAVYLQMSSLRAEDTAVYKCNSVEDILAWGQGTLVTVKP
notes: also called γδ TCRxCD33; CD33×1D7v9
Consider B2, for which the binding result in experiment [2] is recorded as “binds”. The “EC50 (read off the curve)” value in experiment [3] is approximately 20 nM.

B3: cx12056, CD33×UT (untargeted) monospecific CD33 construct (anti-CD33 VHH-Fc knob / 4GFTv1 VHH-Fc hole) (Fc fusion)
chain 1: EVQLVESGGGEVQPGGSLRLSCAASRSSGIDVMGWYRQAPGKERELVAEISGVGDTNYAASLADRFTVSRDNAKNTVYLQMSSLRAEDTAVYYCNAHSFLDLVGAWGQGTLVTVKPGGGGDKTHTCPPCPAPGGPSVFLFPPKPKDTLMISRTPEVTCVVVDVSHEDPEVKFNWYVDGVEVHNAKTKPREEQYNSTYRVVSVLTVLHQDWLNGKEYKCKVSNKALPAPIEKTISKAKGQPREPQVYTLPPCRDELTKNQVSLWCLVKGFYPSDIAVEWESNGQPENNYKTTPPVLDSDGSFFLYSKLTVDKSRWQQGNVFSCSVMHEALHNHYTQKSLSLSPGK
chain 2: EVQLVESGGGEVQPGGSLRLSCSAAPERAFSNYAMGWFRQAPGKGREFVAGITGSGRSQYYAESVKGRFTISRDNAKNTLYLQMSSLRAEDTAVYYCAARVVPVFSESTKGYVYWGQGTLVTVKPGGGGDKTHTCPPCPAPGGPSVFLFPPKPKDTLMISRTPEVTCVVVDVSHEDPEVKFNWYVDGVEVHNAKTKPREEQYNSTYRVVSVLTVLHQDWLNGKEYKCKVSNKALPAPIEKTISKAKGQPREPQVCTLPPSRDELTKNQVSLSCAVKGFYPSDIAVEWESNGQPENNYKTTPPVLDSDGSFFLVSKLTVDKSRWQQGNVFSCSVMHEALHNRYTQKSLSLSPGK
notes: also called CD33 x UT
As to B3, the binding result in experiment [2] is “binds”.

A word on the EC50 (read off the curve): it is the midpoint of the concentration-response curve. Lower therefore signals an effect from little substance.
